Tests used:
[1] = system: double-knockout Escherichia coli strain (EDCE); test: Growth of double-knockout E. coli (EDCE) transformed with Oryza sativa EPSPS genes in glyphosate media (Example 5); type: cell-based; conditions: Example 5, FIG. 1
Source text: An Escherichia coli strain transformed with the Oryza sativa EPSPS mutant I-encoding gene according to Example 1 was used as Experimental Group 1 (having only the A155(138)T mutation).
An Escherichia coli strain transformed with the Oryza sativa EPSPS mutant II-encoding gene according to Example 2 was used as Experimental Group 3 (having the G111(96)A mutation and A155(138)T mutation).
An Escherichia coli strain transformed with a wild-type Oryza sativa EPSPS-encoding gene (SEQ ID NO: 14, encoding wild-type Oryza sativa EPSPS set forth in SEQ ID NO: 5) was used as a control group.
The glyphosate resistance of the Oryza sativa EPSPS mutant I-encoding gene and the encoded Oryza sativa EPSPS mutant I in Escherichia coli, and the glyphosate resistance of the Oryza sativa EPSPS mutant II-encoding gene and the encoded Oryza sativa EPSPS mutant II in Escherichia coli were verified by detecting the growth statuses of the transformed Escherichia coli in media containing different concentrations of glyphosate (0 mM, 1 mM, 2 mM, 20 mM) (media obtained by using M9 as a basal medium and then adding certain concentrations of antibiotics Spec (Spectinomycin), Gen (Gentamycin), and Amp (Ampicillin) and different concentrations of glyphosate).
Here, the Escherichia coli strain used was an double-knockout Escherichia coli strain (Escherichia coli strain DH5a from which an EPSPS gene and a C-P Lyase gene were knocked out, named EDCE, which may be prepared by a method with reference to Chinese Patent Application No. 2016103256926).
The detection was carried out by a method well known in the art, which was briefly described below. Gene encoding Oryza sativa EPSPS mutants was synthesized by a chemical synthesis method, wherein enzymatic digestion sites (Pacl and Sbfl) were introduced at both ends of the gene. The gene were enzymatically cleaved and then ligated in the presence of ligase to an expression vector (e.g., pADV5 vector having a structure as shown in FIG. 4) subjected to the same enzymatic digestion treatment, and then were transformed into the double-knockout Escherichia coli strain. After verification, positive clones were picked out and inoculated and grown in media containing glyphosate. The growth statuses were observed.

[2] = system: transgenic rice seedlings; test: Glyphosate resistance of EPSPS mutants in transgenic rice sprayed with glyphosate (Example 8); type: in vivo, rice (Nipponbare)
Source text: The glyphosate resistance of the EPSPS mutants of the above examples in transgenic rice was detected by the following method.
Plasmids of monoclonal resistant strain comprising pADV5-EPSPS of Examples 1-4 (containing the EPSPS mutant genes) were extracted in accordance with a conventional method. They were subjected to double enzymatic digestion with Pacl and BstEII to recover small fragments, and then the small fragments were ligated, using T4 DNA ligase, to a pGVP1 vector subjected to double enzymatic digestion in the same manner, to obtain a pGVP1-EPSPS vector having a structure as shown in FIG. 8.
The pGVP1-EPSPS vector was transformed into EHA105 (Agrobacterium tumefaciens) competent cells, and single clones were picked out for colony PCR detection to obtain positive strains. Then, the positive strains were inoculated into and propagated in 1 mL of a YEP medium containing 50 μg·mL^−1 kanamycin and 50 μg·mL^−1 rifampicin, and stored at −80° C. or used in subsequent experiments.
400 ul of a strain containing the target gene vector stored at −80° C. was added to a culture dish with a solid medium containing YEP+50 μg/mL rifampicin+50 μg/mL kanamycin and cultured in the dark at 28° C. for 24 hours, and then the bacterium was added to an infection medium and adjusted to OD=0.2 as an infection solution.
Disinfection and Pre-culture: seeds of mature rice (Nipponbare) were manually dehulled. Full seeds with no bacterial plaques were selected and disinfected in accordance with the following steps: the seeds were placed in a 50 ml sterile centrifuge tube and disinfected with the added 70% ethanol in water for 30 seconds, ethanol solution was poured out, and the seeds were washed once with sterile water; 10 to 20 ml of 2.6% sodium hypochlorite solution was added to soak and disinfect the seeds for 20 minutes. The sodium hypochlorite solution was poured out, and the seeds were soaked and washed with sterile water for 6 or 7 times, for 3 minutes each time.
Induction and Subculture: the seeds were placed on and blotted with sterile filter paper, and the mature embryos were placed in an induction medium, with 12 embryos per dish. After the operation was completed, the culture dishes were sealed with parafilm and underwent culturing in the dark at 30° C. for 21 to 28 days. Callus tissue was transferred to a fresh medium and continued to be cultured for about 7 to 14 days. Spherical callus tissue with a dimension of 1 to 2 mm was taken as an infection receptor.
The callus tissue was placed into a centrifuge tube or culture cup, infected in the prepared Agrobacterium suspension added thereto for 10 minutes, and shaken several times during the period; the bacterial solution was poured out, the callus tissue was taken out and placed on sterile filter paper for absorbing the bacterial solution from its surface (for about 30 minutes); the callus tissue was placed on sterile filter paper in culture dishes and cultured in the dark at 25° C. for 2 or 3 days.
Recovery Culture: the co-cultured callus tissue was inoculated on a recovery medium and cultured in the dark at 30° C. for 5 to 7 days.
Primary Screening: the callus was transferred to screening medium 1 (51) and cultured in the dark at 30° C. for 14 days.
Secondary Screening: the callus was then transferred to screening medium 2 (S2) and cultured in the dark at 30° C. for 14 days.
Primary Differentiation: the screened resistant callus tissue was transferred to a differentiation medium and cultured for about 21 days at 30° C. under exposure to light for 19 hours.
Secondary Differentiation: new young shoots were selected and moved to a fresh differentiation medium and continued to be cultured for about 21 days.
When the new seedlings grew to about 2 cm, they were moved to a rooting medium and cultured for 3 to 4 weeks at 30° C. under exposure to light (for 16/8 h). […]

[3] = 1X dose glyphosate (1,060 g/ha), day 10 after spraying
[4] = 2X dose glyphosate (2,120 g/ha) on survivors of 1X, after another 10 days
[5] = 5X dose glyphosate (5,300 g/ha) on survivors of 2X, after additional 10 days
[6] = 20X dose glyphosate (21,200 g/ha) on survivors of 5X, after further 10 days

B1: R0: wild-type Oryza sativa EPSPS (SEQ ID NO: 5), encoding gene SEQ ID NO: 14; control group of Example 5 (protein, listed as Oryza sativa)
chain: MASNAAAAAAKAEEIVLQPIREISGAVQLPGSKSLSNRILLLSALSEGTTVVDNLLNSEDVHYMLEALKALGLSVEADKVAKRAVVVGCGGKFPVEKDAKEEVQLFLGNAGTAMRPLTAAVTAAGGNATYVLDGVPRMRERPIGDLVVGLKQLGADVDCFLGTECPPVRVKGIGGLPGGKVKLSGSISSQYLSALLMAAPLALGDVEIEIIDKLISIPYVEMTLRLMERFGVKAEHSDSWDRFYIKGGQKYKSPGNAYVEGDASSASYFLAGAAITGGTVTVQGCGTTSLQGDVKFAEVLEMMGAKVTWTDTSVTVTGPPREPYGKKHLKAVDVNMNKMPDVAMTLAVVALFADGPTAIRDVASWRVKETERMVAIRTELTKLGASVEEGPDYCIITPPEKLNITAIDTYDDHRMAMAFSLAACADVPVTIRDPGCTRKTFPNYFDVLSTFVRN
could grow: growth status of transformed Escherichia coli ([1]; medium containing 0 mM glyphosate)
0: plant number with resistance ++ (moderately glyphosate resistant) [2, 3] | plant number with resistance +++ (highly glyphosate resistant) [2, 3] | plant number with resistance + (low glyphosate resistant) [2, 4] | plant number with resistance ++ (moderately glyphosate resistant) [2, 4] | plant number with resistance +++ (highly glyphosate resistant) [2, 4] | plant number with resistance + (low glyphosate resistant) [2, 5] | plant number with resistance ++ (moderately glyphosate resistant) [2, 5] | plant number with resistance +++ (highly glyphosate resistant) [2, 5] | plant number with resistance + (low glyphosate resistant) [2, 6] | plant number with resistance ++ (moderately glyphosate resistant) [2, 6] | plant number with resistance +++ (highly glyphosate resistant) [2, 6]
0.0%: % ++&+++ (percentage of moderately and highly glyphosate resistant plants in total plants observed) [2, 3] | % ++&+++ (percentage of moderately and highly glyphosate resistant plants in total plants observed) [2, 4] | % ++&+++ (percentage of moderately and highly glyphosate resistant plants in total plants observed) [2, 5] | % ++&+++ (percentage of moderately and highly glyphosate resistant plants in total plants observed) [2, 6]
could not grow: growth status of transformed Escherichia coli ([1]; medium containing 1 mM glyphosate) | growth status of transformed Escherichia coli ([1]; medium containing 2 mM glyphosate) | growth status of transformed Escherichia coli ([1]; medium containing 20 mM glyphosate)
1: plant number with resistance + (low glyphosate resistant) [2, 3]
31: plant number with resistance − (non-glyphosate resistant, withered or dead) [2, 4] | plant number with resistance − (non-glyphosate resistant, withered or dead) [2, 5] | plant number with resistance − (non-glyphosate resistant, withered or dead) [2, 6]
all had no resistance: glyphosate resistance of transformed rice seedlings (in words) ([2]; after spraying with 1× glyphosate)
